Starred links: 1 amine or outer side, 2 acyl side, 3 side chain; linkers in the order of their positions; H or OH if unused. Non-standard residues stand in square brackets, D forms with d. *: point of attachment. Oic = O=C(O)[C@@H]1C[C@@H]2CCCC[C@@H]2N1; Phe(4-Cl) = N[C@@H](Cc1ccc(Cl)cc1)C(=O)O; dPhe(4-Cl) = N[C@H](Cc1ccc(Cl)cc1)C(=O)O; γGlu = O=C(O)[C@H](CCC(=O)[*:2])N[*:1]; 2Nal = N[C@@H](Cc1ccc2ccccc2c1)C(=O)O; NMeR = CN[C@@H](CCCNC(=N)N)C(=O)O; Tridecanoyl = CCCCCCCCCCCCC(=O)*; hArg = N=C(N)NCCCC[C@H](N)C(=O)O; αMeL = CC(C)C[C@](C)(N)C(=O)O; β3hL = CC(C)C[C@H](N)CC(=O)O; Nle = CCCC[C@H](N)C(=O)O; AEEA = NCCOCCOCC(=O)O
T1: rat APJ receptor (rat, UniProt Q9JHG3 1-377)
T1 sequence (looked up): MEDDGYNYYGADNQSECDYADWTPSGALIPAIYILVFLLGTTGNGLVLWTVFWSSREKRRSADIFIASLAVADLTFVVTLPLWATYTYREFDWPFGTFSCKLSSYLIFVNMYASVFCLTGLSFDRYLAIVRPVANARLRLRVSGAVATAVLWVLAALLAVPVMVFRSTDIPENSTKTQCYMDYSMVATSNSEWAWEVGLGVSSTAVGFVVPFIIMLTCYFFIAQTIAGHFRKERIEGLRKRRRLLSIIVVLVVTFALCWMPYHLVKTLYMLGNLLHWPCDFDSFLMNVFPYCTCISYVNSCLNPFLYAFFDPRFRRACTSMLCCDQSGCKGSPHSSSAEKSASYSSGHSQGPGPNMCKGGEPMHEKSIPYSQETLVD

T2: human APJ receptor (human, UniProt P35414 1-380)
T2 sequence (looked up): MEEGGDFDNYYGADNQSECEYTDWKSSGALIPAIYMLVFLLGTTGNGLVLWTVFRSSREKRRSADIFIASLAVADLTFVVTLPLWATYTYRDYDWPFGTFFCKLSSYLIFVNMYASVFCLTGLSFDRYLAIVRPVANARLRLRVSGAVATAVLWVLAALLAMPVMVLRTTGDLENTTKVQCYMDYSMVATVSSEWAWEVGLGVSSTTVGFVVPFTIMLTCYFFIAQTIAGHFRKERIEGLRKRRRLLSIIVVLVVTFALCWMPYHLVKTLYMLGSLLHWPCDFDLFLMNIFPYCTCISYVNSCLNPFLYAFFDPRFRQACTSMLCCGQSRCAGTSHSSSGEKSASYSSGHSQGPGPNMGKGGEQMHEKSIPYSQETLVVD


How the values were obtained:
rat APJ receptor = target: T1, rat APJ receptor; test: cell-based or functional assay
human APJ receptor = target: T2, human APJ receptor; test: cell-based or functional assay

EC50 Rat APJ Receptor (GTPγS assay) (rat APJ receptor) | EC50 Human APJ Receptor (GTPγS assay) (human APJ receptor) | Binder
14400 pM | 16500 pM | Tridecanoyl-[γGlu][AEEA][AEEA][dQ][hArg]P[NMeR][β3hL]SHKG[Oic][Nle]P[dPhe(4-Cl)]-OH (SMILES CCCCCCCCCCCCC(=O)N[C@@H](CCC(=O)NCCOCCOCC(=O)NCCOCCOCC(=O)N[C@H](CCC(N)=O)C(=O)N[C@@H](CCCCNC(=N)N)C(=O)N1CCC[C@H]1C(=O)N(C)[C@@H](CCCNC(=N)N)C(=O)N[C@H](CC(=O)N[C@@H](CO)C(=O)N[C@@H](Cc1c[nH]cn1)C(=O)N[C@@H](CCCCN)C(=O)NCC(=O)N1[C@H](C(=O)N[C@@H](CCCC)C(=O)N2CCC[C@H]2C(=O)N[C@H](Cc2ccc(Cl)cc2)C(=O)O)C[C@@H]2CCCC[C@@H]21)CC(C)C)C(=O)O) [Apelin polypeptide SEQ ID NO: 302]
116 pM | 53 pM | Tridecanoyl-[γGlu][AEEA][AEEA]Q[hArg]P[NMeR][αMeL]SHKG[Oic][Nle]P[Phe(4-Cl)]-OH (SMILES CCCCCCCCCCCCC(=O)N[C@@H](CCC(=O)NCCOCCOCC(=O)NCCOCCOCC(=O)N[C@@H](CCC(N)=O)C(=O)N[C@@H](CCCCNC(=N)N)C(=O)N1CCC[C@H]1C(=O)N(C)[C@@H](CCCNC(=N)N)C(=O)N[C@@](C)(CC(C)C)C(=O)N[C@@H](CO)C(=O)N[C@@H](Cc1c[nH]cn1)C(=O)N[C@@H](CCCCN)C(=O)NCC(=O)N1[C@H](C(=O)N[C@@H](CCCC)C(=O)N2CCC[C@H]2C(=O)N[C@@H](Cc2ccc(Cl)cc2)C(=O)O)C[C@@H]2CCCC[C@@H]21)C(=O)O) [Apelin polypeptide SEQ ID NO: 359]
465 pM | 99 pM | Tridecanoyl-[γGlu][AEEA][AEEA]Q[hArg]P[NMeR][αMeL]SHKGP[Nle]P[2Nal]-OH (SMILES CCCCCCCCCCCCC(=O)N[C@@H](CCC(=O)NCCOCCOCC(=O)NCCOCCOCC(=O)N[C@@H](CCC(N)=O)C(=O)N[C@@H](CCCCNC(=N)N)C(=O)N1CCC[C@H]1C(=O)N(C)[C@@H](CCCNC(=N)N)C(=O)N[C@@](C)(CC(C)C)C(=O)N[C@@H](CO)C(=O)N[C@@H](Cc1c[nH]cn1)C(=O)N[C@@H](CCCCN)C(=O)NCC(=O)N1CCC[C@H]1C(=O)N[C@@H](CCCC)C(=O)N1CCC[C@H]1C(=O)N[C@@H](Cc1ccc2ccccc2c1)C(=O)O)C(=O)O) [Apelin polypeptide SEQ ID NO: 473]
314 pM | 285 pM | Tridecanoyl-[γGlu][AEEA][AEEA]Q[hArg]P[hArg]LSHKG[Oic][Nle]P[Phe(4-Cl)]-OH (SMILES CCCCCCCCCCCCC(=O)N[C@@H](CCC(=O)NCCOCCOCC(=O)NCCOCCOCC(=O)N[C@@H](CCC(N)=O)C(=O)N[C@@H](CCCCNC(=N)N)C(=O)N1CCC[C@H]1C(=O)N[C@@H](CCCCNC(=N)N)C(=O)N[C@@H](CC(C)C)C(=O)N[C@@H](CO)C(=O)N[C@@H](Cc1c[nH]cn1)C(=O)N[C@@H](CCCCN)C(=O)NCC(=O)N1[C@H](C(=O)N[C@@H](CCCC)C(=O)N2CCC[C@H]2C(=O)N[C@@H](Cc2ccc(Cl)cc2)C(=O)O)C[C@@H]2CCCC[C@@H]21)C(=O)O) [Apelin polypeptide SEQ ID NO: 358]
62.7 pM | 34.7 pM | XXXQRPRLSHKGPXPF ({TDA}[AC4Abu][Aeea][Aeea]Q[hArg]P[NMeArg][aMeLeu]SHKGP[Nle]P[4-Cl-F]{COOH}) [Apelin polypeptide SEQ ID NO: 460]
